Results as given in the Human Domainome abundance scans (Beltran et al. 2025).

B1: Intersectin-1, residues 1156 to 1213; numbered along this chain, Q15811 (parent)
chain: AVCQVIGMYDYTAQNDDELAFNKGQIINVLNKEDPDWWKGEVNGQVGLFPSNYVKLTT

Variants of: B1
Experiment: abundance fitness (aPCA) (normalised: wild type 0, dead -1); higher = more abundant; growth selection in yeast, the domain comes from the species named
Conditions: Homo sapiens

Abundance fitness of substitutions, site by site:
I26: M -0.462 | P -0.561 | F -0.523 | W -0.505 | G -0.857 | R -0.131 | K -0.084 | V 0.297 | Q -0.304 | H -0.332 | A -0.237 | E -0.278 | D -0.807 | C -0.149 | L 0.18 | S -0.554 | T 0.163
V29: K -0.699 | Q -1.01 | S -0.827 | W -0.672 | H -1.03 | Y -0.504 | L -0.323 | C -0.219 | I -0.617 | G -0.742 | D -0.739 | E -0.925 | R -0.9 | T -0.788 | N -0.721
E18: I -0.853 | D -0.263 | Y -0.254 | A -0.646 | L -0.745 | H -0.208 | N -0.954 | T -0.908 | P -0.919 | Q 0.036 | V -0.722 | G -0.317 | C -0.309 | S -0.397 | R -0.819 | M -0.696 | W -0.905 | F -0.466 | K -0.439
G24: W -0.528 | I -0.682 | D -0.579 | K -0.571 | S -0.524 | T -0.599 | A -0.854 | P -0.825 | Q -0.44 | N -0.348 | F -0.739 | M -0.693 | E -0.895 | V -0.895
N28: M -0.298 | Q -0.399 | D -0.284 | G -0.732 | S 0.186 | T 0.281 | C -0.632 | A -0.225 | F -0.243 | P -0.942 | R -0.065 | V -0.423 | I -0.451 | K -0.014 | Y -0.011 | E -0.156
D17: T -0.119 | Y -0.359 | V -0.473
D34: T -0.383 | F -0.554 | N -0.348 | P -0.543 | Y -0.94 | E -0.376 | H -0.158 | G -0.409 | W -0.894 | C -0.553 | I -0.974 | Q -0.489 | A -0.385 | K -0.176 | V -0.691 | L -0.673 | S -0.221 | R -0.116
W37: C -0.588 | R -0.49 | A -0.585 | Q -0.223 | G -0.72 | D -0.637 | P -0.947 | T -0.276 | F -0.307 | H -0.887 | Y -0.058 | K -0.792 | L -0.339 | E -0.737 | M 0.004 | S -0.778 | I -0.022
L30: A -0.911 | V -0.081 | N -0.505 | G -0.933 | E -0.978 | P -1.04 | H -0.7 | T -0.476 | F -0.123 | Y -0.32 | I 0.043 | M -0.412 | S -0.758 | D -0.917 | R -0.712 | C -0.867 | Q -0.257 | K -0.825
K23: L -0.77 | P -0.921 | W -0.852 | N -0.494 | E -0.011 | I -0.849 | Q -0.043 | V -0.21 | C -0.275 | T 0.065 | S -0.214 | M -0.487 | H -0.298 | G -0.701 | D -0.859 | A 0.215 | R 0.137 | F -0.613 | Y -0.673
D36: N -0.203 | E -0.196 | G -0.279 | A -0.004 | P -0.53 | K 0.071 | S -0.131 | Y 0.01 | C -0.117 | V -0.069 | M -0.018 | H -0.08 | F -0.175 | T -0.143 | L -0.072 | I -0.138 | R -0.009 | Q -0.218
K32: Y -0.341 | S -0.16 | W -0.109 | C -0.147 | M -0.039 | L -0.38 | G -0.527 | R 0.066 | P -0.736 | A 0.093 | Q -0.035 | T -0.093 | D -0.296 | F -0.576 | N -0.339 | H -0.449
F21: I -0.266 | K -0.527 | S -0.927 | H -0.724 | T -0.985 | V 0.013 | A -0.913 | M -0.643 | L -0.687 | C -1.01 | E -0.745 | D -0.656 | P -1.06 | Y -1.06 | Q -1.13 | G -0.772 | R -0.686 | W -0.718
N31: F -1.05 | D 0.223 | V -0.313 | R -0.373 | Y -0.525 | K -0.319 | S 0.006 | P -0.833 | L -0.631 | C 0.287 | G -0.076 | Q -0.099 | I -0.559 | M -0.275 | E 0.196 | H -0.095 | T -0.159 | W -0.287 | A 0.037
I27: R -0.85 | F -0.805 | H -0.748 | D -0.695 | M -0.696 | Y -0.564 | Q -1.05 | K -0.81 | V -0.297 | A -0.789 | T -0.859 | E -0.811 | N -0.765 | L -0.373 | W -0.908 | G -0.746 | S -0.915 | P -0.612
E33: R -0.367 | T -0.075 | N -0.516 | D -0.047 | L -0.497 | G -0.241 | H -0.373 | S -0.101 | V -0.324 | F -0.61 | Q -0.077 | I -0.451 | P -0.6 | W -0.987 | A -0.211 | K -0.236
N22: F -0.432 | L -0.285 | D 0.164 | A 0.157 | Y -0.422 | M 0.02 | W -0.466 | G -0.006 | C 0.128 | S 0.009 | K -0.027 | V -0.06 | E 0.174 | I -0.286 | P -0.062
W38: T -0.892 | H -0.793 | D -0.674 | S -0.763 | N -0.644 | A -0.533 | Q -0.715 | C -0.793 | K -0.671 | M -0.733 | G -0.822 | R -1.08 | P -0.853 | Y -0.791 | F -0.859 | V -0.906 | L -0.737 | E -0.779 | I -1.03
K39: V -0.448
L19: W -0.838 | Y -1.04 | H -0.858 | Q -0.869 | D -0.776 | I -0.357 | K -0.908 | R -0.764 | E -0.523 | N -0.7 | P -0.806 | T -0.648 | C -0.599 | G -0.726 | S -0.848 | A -0.9 | V -0.281 | F -0.733
A20: Y -0.662 | T 0.127 | Q 0.092 | D -0.286 | L -0.796 | R -0.292 | P -0.123 | M -0.545 | I -0.793 | C -0.152 | G 0.1 | F -0.673 | N -0.484 | H -0.268 | K -0.236 | W -0.415 | E -0.149 | S -0.079
G40: D -0.722 | A -0.753
